Test results as given in PMC12556795.
Values belong to the substance of their own block, whether it stands above or below them.

Columns and labels:
[1] = biological target: 60S ribosomal subunit (rabbit) (rabbit (endogenous in reticulocyte lysate)) (UniProt P19949)
[2] = biological target: 60S ribosomal subunit (rabbit) (rabbit (endogenous in reticulocyte lysate)) (UniProt P19949); remark: listed apart in the source
[3] = biological target: DCC C-tail ΔN29+P1 protein (residues 1168-1447) (H. sapiens) (UniProt P43146); test: MST; Cy5-labelled DCC protein (target) at 5 nM, purified 60S subunits (ligand) titrated from 5 uM to 0.15 nM over 16 capillaries; 20 mM Tris-HCl pH 7.5, 100 mM KCl, 2 mM Mg(OAc)2, 1 mM DTT, 0.5 mM EDTA, 0.25 M sucrose; 25 °C; 1:1 binding model; KD values called relative, not absolute (limited by 60S solubility)
[4] = biological target: DCC C-tail N29+P1 protein (residues 1121-1167) (H. sapiens) (UniProt P43146); test: as above
[5] = biological target: DCC C-tail ΔP3 protein (residues 1121-1424) (H. sapiens) (UniProt P43146); test: other fluorescence titration; initial fluorescence read on the MST instrument; Cy5-labelled ΔP3 at 5 nM, 60S subunits titrated from 5 uM to 0.15 nM; 20 mM Tris-HCl pH 7.5, 100 mM KCl, 2 mM Mg(OAc)2, 1 mM DTT, 0.5 mM EDTA, 0.25 M sucrose; 25 °C; 1:1 binding model; KD values called relative
DCC C-tail ΔP3 protein (residues 1121-1424) (H. sapiens), sequence (P43146 1121-1424, stated change not applied): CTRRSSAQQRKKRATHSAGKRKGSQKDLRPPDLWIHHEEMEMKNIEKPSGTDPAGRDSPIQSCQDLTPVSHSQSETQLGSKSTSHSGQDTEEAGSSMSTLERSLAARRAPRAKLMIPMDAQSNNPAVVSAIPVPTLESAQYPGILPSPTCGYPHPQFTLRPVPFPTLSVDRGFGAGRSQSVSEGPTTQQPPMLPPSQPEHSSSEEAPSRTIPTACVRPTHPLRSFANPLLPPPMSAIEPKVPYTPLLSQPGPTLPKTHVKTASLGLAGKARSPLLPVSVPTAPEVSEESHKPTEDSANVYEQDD

DCC C-tail ΔP3 protein (residues 1121-1424), sequence (P43146 1121-1424, stated change not applied): as above
DCC C-tail ΔN29+P1 protein (residues 1168-1447) (H. sapiens), sequence (P43146 1168-1447, stated change not applied): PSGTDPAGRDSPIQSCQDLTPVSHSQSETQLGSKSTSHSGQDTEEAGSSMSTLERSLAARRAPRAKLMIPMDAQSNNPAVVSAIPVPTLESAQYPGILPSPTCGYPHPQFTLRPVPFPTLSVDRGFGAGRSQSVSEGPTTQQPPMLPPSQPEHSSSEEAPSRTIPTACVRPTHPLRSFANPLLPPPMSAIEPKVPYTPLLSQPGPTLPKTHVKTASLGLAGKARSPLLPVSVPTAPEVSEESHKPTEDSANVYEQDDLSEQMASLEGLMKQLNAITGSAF
DCC C-tail N29+P1 protein (residues 1121-1167), sequence (P43146 1121-1167): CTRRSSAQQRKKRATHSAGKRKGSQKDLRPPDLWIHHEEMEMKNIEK
DCC C-tail N29+P1 protein (residues 1121-1167) (H. sapiens), sequence (P43146 1121-1167): as above

decrease of in vitro translation of a luciferase reporter mRNA in rabbit reticulocyte lysate by the DCC protein (3 and 6 μM) (% decrease of translation) [1]: 20
Substance: DCC C-tail N29+P1 KRK→AAA protein (residues 1121-1167, alanines at 1140 to 1142) (from UniProt P43146 1121-1167) (domain or fragment)

inhibition of in vitro translation of a luciferase reporter mRNA in rabbit reticulocyte lysate by 3 μM DCC protein (% inhibition of translation) [2]: 92
Substance: DCC C-tail ΔP3 protein (residues 1121-1424) (from UniProt P43146 1121-1424) (domain or fragment)

decrease of in vitro translation of a luciferase reporter mRNA in rabbit reticulocyte lysate by the DCC protein (3 and 6 μM) (% decrease of translation) [1]: 90
Substance: DCC C-tail N29+P1 protein (residues 1121-1167) (from UniProt P43146 1121-1167) (domain or fragment)

Kd [3]: 285 nM
Kd [4]: 80.1 nM
Kd [5]: 68.4 nM
Substance: 60S ribosomal subunit (rabbit) (from UniProt P19949 1-297) (complex)
